T1: mouse cell surface uPAR (muPAR) (mouse, UniProt P35456 24-298)
T1 construct: whole, on cells; also called mouse uPAR
T1 sequence (looked up): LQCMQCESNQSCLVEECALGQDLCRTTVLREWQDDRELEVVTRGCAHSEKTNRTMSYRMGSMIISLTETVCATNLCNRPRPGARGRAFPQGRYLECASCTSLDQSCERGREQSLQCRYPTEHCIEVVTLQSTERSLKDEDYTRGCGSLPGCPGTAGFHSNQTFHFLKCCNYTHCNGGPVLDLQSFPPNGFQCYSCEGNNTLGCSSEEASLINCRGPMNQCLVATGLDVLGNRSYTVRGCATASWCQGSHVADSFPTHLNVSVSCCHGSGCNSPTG


Tests used:
[1] = biological target: T2, human soluble urokinase plasminogen activator receptor (suPAR) (human, UniProt Q03405 23-303, limits assumed); assay: dissociation rate (kdis) on human suPAR; method not stated
T2 construct: also called hsuPAR; human suPAR

[2] = biological target: T3, Fc-gammaR1 receptor recombinant protein, biotinylated (Homo sapiens (Human), UniProt P12314 16-292, Biotinylated for capture on the sensor; the site of biotin is not stated in the passages seen.); assay: BLI (Octet Red96E), biotinylated Fc-gammaR1 on streptavidin sensor, antibody as analyte
T3 construct: also called Fc-gammaR1 isoform
Method: Antibody induced immune response is known to be mediated by interaction with Fc-gamma receptors. Immunologic response potential of WAL0921-ΔK was assessed biophysically on an Octet Red96E platform by measuring the binding affinity to Fc-gammaR1, high affinity Fc-gammaR2a and high affinity Fc-gammaR3a receptor recombinant proteins.
Biotinylated Fc-gamma proteins were procured from Acro Biosystems and immobilized on a streptavidin biosensor. Increasing concentrations of analyte WAL0921-ΔK were then applied, and responses measured. Binding affinity (KD, nM) was calculated from the response rate constants as described above.

[3] = biological target: T4, cynomolgus suPAR (cynomolgus, UniProt Q9GK78 23-303, limits assumed); assay: BLI (Octet Red 96E), antibody immobilized
T4 construct: also called Cynomolgus suPAR isoform protein; cynomolgus uPAR
Description: Recombinantly expressed proteins for hsuPAR isoform 1-D2D3 fragment and hsuPAR-3 isoforms were custom generated in HEK or CHO cells and purified by Genscript from the known amino-acid sequence of hsuPAR-1 and hsuPAR-3 respectively. Cynomolgus suPAR isoform protein was commercially obtained from Creative Biomart.

[4] = biological target: T5, human neonatal FcRn receptor (hFcRn), biotinylated (human, UniProt P55899 24-297, biotinylated (site not stated)); assay: BLI (Octet Red96E), biotinylated hFcRn on SA sensor, WAb0014 as analyte, acidic conditions (pH 6)
T5 construct: also called FcRn receptors; neonatal FcRn receptors
Method: Biotinylated hFcRn protein was sourced from Acro Biosystems and immobilized on a SA biosensor. […] Binding affinity (KD, nM) was calculated from the response rate constants as described above.

[5] = biological target: T1, mouse cell surface uPAR (muPAR); assay: flow cytometry on undifferentiated mouse podocytes, FITC secondary antibody
Method: Gene expression of mouse uPAR in undifferentiated mouse podocyte cells was undertaken using commercial gene specific qPCR probes for mouse and human uPAR and normalized to 18S housekeeping gene expression using manufacturers RT-qPCR protocol (Thermofisher). Separately, mouse podocytes were incubated with 100 μg/mL concentration of anti-hsuPAR and Proteintech positive control anti-mouse uPAR antibodies at 4° C. for 1 hr. After 2 cycles of wash to remove any unbound antibody, cells were incubated with 10 μg/mL of a goat-anti-human-FITC or goat-anti-mouse-FITC or goat-anti-rabbit-FITC conjugated secondary antibody for 1 hr at 4° C. After washing any unbound secondary antibody, cell suspensions for each sample was gated for single cells and population mean fluorescence intensity was recorded and analyzed on a Luminex Flowsight flow cytometer. Mean fluorescence intensity for test samples was plotted in GraphPad Prism software and compared to positive control sample data.

[6] = biological target: T6, cell surface human uPAR (huPAR) (human, UniProt Q03405 23-305); assay: flow cytometry on human podocytes, FITC secondary antibody, MFI against concentration
T6 construct: whole, on cells; also called cell surface huPAR; cell surface uPAR
Method: After 2 cycles of wash to remove any unbound antibody, cells were incubated with 10 μg/mL of a goat-anti-human-FITC conjugated secondary antibody for 1 hr at 4° C.

[7] = biological target: T7, human suPAR (hsuPAR) recombinant protein (human, UniProt Q03405 23-303); assay: BLI (Octet Red96E), hsuPAR immobilized on streptavidin sensor, WAb0014 as analyte
T7 construct: it is written here as the same molecule; also called recombinant hsuPAR
Method: (§1) Analyte global association (kₐ) and disassociation […] rates were calculated using in-built functions to determine binding affinity (KD)

[8] = biological target: T7, human suPAR (hsuPAR) recombinant protein; assay: BLI (Octet Red96E), WAb0014 immobilized on AHC sensor, hsuPAR as analyte
Method: as §1

T2 sequence (Q03405 23-303 limits assumed): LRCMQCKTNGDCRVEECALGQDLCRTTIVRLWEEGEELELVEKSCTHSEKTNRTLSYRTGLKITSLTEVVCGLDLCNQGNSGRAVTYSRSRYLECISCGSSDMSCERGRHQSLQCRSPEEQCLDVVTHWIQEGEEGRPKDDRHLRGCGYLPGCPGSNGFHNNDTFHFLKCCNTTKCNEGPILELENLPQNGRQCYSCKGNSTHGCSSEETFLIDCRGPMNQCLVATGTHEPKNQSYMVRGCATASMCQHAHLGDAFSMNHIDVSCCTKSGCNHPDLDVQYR
T7 sequence (Q03405 23-303): as the sequence (Q03405 23-303 limits assumed) above
T3 sequence (P12314 16-292 limits assumed, form in doubt): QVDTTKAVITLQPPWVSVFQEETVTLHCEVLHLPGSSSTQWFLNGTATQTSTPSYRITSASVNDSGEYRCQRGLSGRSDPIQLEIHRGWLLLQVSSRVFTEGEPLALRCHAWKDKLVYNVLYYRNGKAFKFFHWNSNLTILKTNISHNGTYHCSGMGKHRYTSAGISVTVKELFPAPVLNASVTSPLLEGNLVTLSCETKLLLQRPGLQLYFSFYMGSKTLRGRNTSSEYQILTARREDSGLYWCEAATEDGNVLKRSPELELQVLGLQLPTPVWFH
T5 sequence (P55899 24-297 limits assumed, form in doubt): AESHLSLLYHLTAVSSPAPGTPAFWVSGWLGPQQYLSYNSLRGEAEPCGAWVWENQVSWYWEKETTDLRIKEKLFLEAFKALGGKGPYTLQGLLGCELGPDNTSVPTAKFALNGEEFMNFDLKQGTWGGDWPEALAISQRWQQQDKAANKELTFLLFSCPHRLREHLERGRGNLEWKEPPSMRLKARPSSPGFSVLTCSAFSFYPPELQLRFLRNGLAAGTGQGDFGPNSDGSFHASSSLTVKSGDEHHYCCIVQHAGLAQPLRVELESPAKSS
T4 sequence (Q9GK78 23-303 limits assumed): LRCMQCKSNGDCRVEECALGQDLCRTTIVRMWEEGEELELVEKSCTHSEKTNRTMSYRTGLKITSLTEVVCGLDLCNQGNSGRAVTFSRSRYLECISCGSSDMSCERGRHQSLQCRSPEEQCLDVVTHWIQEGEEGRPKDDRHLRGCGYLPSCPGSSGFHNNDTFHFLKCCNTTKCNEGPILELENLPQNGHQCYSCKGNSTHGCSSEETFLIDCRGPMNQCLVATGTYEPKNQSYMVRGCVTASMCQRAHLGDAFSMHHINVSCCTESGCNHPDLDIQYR
T6 sequence (Q03405 23-305): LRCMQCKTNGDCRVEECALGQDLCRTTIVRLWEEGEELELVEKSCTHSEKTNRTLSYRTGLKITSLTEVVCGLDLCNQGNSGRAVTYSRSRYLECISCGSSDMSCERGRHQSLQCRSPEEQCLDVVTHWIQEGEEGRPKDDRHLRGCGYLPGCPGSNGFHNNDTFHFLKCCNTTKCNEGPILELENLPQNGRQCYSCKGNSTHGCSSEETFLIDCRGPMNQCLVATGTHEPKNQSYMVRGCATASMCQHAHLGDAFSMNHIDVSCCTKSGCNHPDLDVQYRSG

Row | koff [1] [s⁻¹] | binding result [5] | Binder | further results
1 | 2.57e-07 | – | WAb0014 (antibody, also called original candidate; WAL0921 without P330G) heavy: not shown light: DIQMTQSPSSLSASVGDRVTITCSARQSVSYMYWYQQKPGKAPKLLIYRTSNLASGVPSRFSGSGSGTDFTLTISSLQPEDFATYYCQQYHSYPPTFGGGTKVEIKRTVAAPSVFIFPPSDEQLKSGTASVVCLLNNFYPREAKVQWKVDNALQSGNSQESVTEQDSKDSTYSLSSTLTLSKADYEKHKVYACEVTHQGLSSPVTKSFNRGEC | –
2 | – | – | WAL0921-ΔK (antibody, Same as WAL0921 but without the C-terminal lysine of the heavy chain (K448 of the whole heavy chain); also called WAL0921 without K448) heavy: not shown light: DIQMTQSPSSLSASVGDRVTITCSARQSVSYMYWYQQKPGKAPKLLIYRTSNLASGVPSRFSGSGSGTDFTLTISSLQPEDFATYYCQQYHSYPPTFGGGTKVEIKRTVAAPSVFIFPPSDEQLKSGTASVVCLLNNFYPREAKVQWKVDNALQSGNSQESVTEQDSKDSTYSLSSTLTLSKADYEKHKVYACEVTHQGLSSPVTKSFNRGEC | Kd [2]: 1750 nM
3 | – | no binding (tested: 100 µg/mL) | WAb0014 (antibody, human IgG1, human kappa; also called initial anti-suPAR antibody; original candidate; copies: 2 + 2) heavy: not shown light: DIQMTQSPSSLSASVGDRVTITCSARQSVSYMYWYQQKPGKAPKLLIYRTSNLASGVPSRFSGSGSGTDFTLTISSLQPEDFATYYCQQYHSYPPTFGGGTKVEIKRTVAAPSVFIFPPSDEQLKSGTASVVCLLNNFYPREAKVQWKVDNALQSGNSQESVTEQDSKDSTYSLSSTLTLSKADYEKHKVYACEVTHQGLSSPVTKSFNRGEC | Kd [3]: 10.5 nM; Kd [4]: 0.025 nM; Kd [6]: 1 to 3 nM; Kd [7]: < 0.1 nM; Kd [8]: 0.69 to 2 nM
4 | – | no binding (tested: 100 µg/mL) | WAb0006 (antibody, human IgG1, V domains shown, The listing names these entries 'WAb CD0006'; Fc region identical to WAb0014 (human IgG1, L235A, L236A); human kappa; also called original backup candidate) VH: QVQLVQSGAEVKKPGASVKVSCKASGYTFTSHYIQWVRQAPGQGLEWMGWIDHENGNTIYDQKFQGRVTMTRDTSTSTVYMELSSLRSEDTAVYYCARGTDVDWFVYWGQGTLVTVSS VL: DIQMTQSPSSLSASVGDRVTITCSARSSVSYMYWYQQKPGKAPKLLIYRTSNLASGVPSRFSGSGSGTDFTLTISSLQPEDFATYYCQQYHSYPPTFGGGTKVEIKR | –
5 | 3.43e-07 | – | WAb0019 (antibody, V domains shown, constant regions not tied to this antibody; also called WAb CD0019) VH: QVQLVQSGAEVKKPGASVKVSCKASGYTFSSYYMHWVRQAPGQGLEWMGWIDHENGNTIYAQKFQGRVTMTRDTSTSTVYMELSSLRSEDTAVYYCARGYDVDWFVYWGQGTLVTVSS VL: DIQMTQSPSSLSASVGDRVTITCSARSSVSYMYWYQQKPGKAPKLLIYRTSNLASGVPSRFSGSGSGTDFTLTISSLQPEDFATYYCQQYHSYPPTFGGGTKVEIK | –
6 | – | no binding (tested: 100 µg/mL) | WAb0008 (antibody, IgG2a, V domains shown, The listing names these entries 'WAb CD0008'; WAb0006 VH + mIgG2a Fc with L235A and L236A; WAb0006 VL + mouse kappa constant; also called WAb008; mouse IgG2a version of WAb0006) VH: QVQLVQSGAEVKKPGASVKVSCKASGYTFTSHYIQWVRQAPGQGLEWMGWIDHENGNTIYDQKFQGRVTMTRDTSTSTVYMELSSLRSEDTAVYYCARGTDVDWFVYWGQGTLVTVSS VL: DIQMTQSPSSLSASVGDRVTITCSARSSVSYMYWYQQKPGKAPKLLIYRTSNLASGVPSRFSGSGSGTDFTLTISSLQPEDFATYYCQQYHSYPPTFGGGTKVEIK | –
7 | 3.42e-07 | – | WAb0020 (antibody, V domains shown, constant regions not tied to this antibody; also called WAb CD0020) VH: QVQLVQSGAEVKKPGASVKVSCKASGYTFTSHYVHWVRQAPGQGLEWMGWIDHENGNTIYDQKFQGRVTMTRDTSTSTVYMELSSLRSEDTAVYYCARGYDVDWFVYWGQGTLVTVSS VL: DIQMTQSPSSLSASVGDRVTITCSARSSVSYMYWYQQKPGKAPKLLIYRTSNLASGVPSRFSGSGSGTDFTLTISSLQPEDFATYYCQQYHSYPPTFGGGTKVEIK | –
